Source: article PMC3142331
pKi: −log10 of the molar value.

Target: Mce1-(227–567) protein, RNA guanylyltransferase (GTase) domain of mouse mammalian capping enzyme (mouse) (UniProt O55236)
Experiment: fluorescence polarisation

Sequence of Mce1-(227–567) protein, RNA guanylyltransferase (GTase) domain of mouse mammalian capping enzyme (mouse) (O55236 227-567): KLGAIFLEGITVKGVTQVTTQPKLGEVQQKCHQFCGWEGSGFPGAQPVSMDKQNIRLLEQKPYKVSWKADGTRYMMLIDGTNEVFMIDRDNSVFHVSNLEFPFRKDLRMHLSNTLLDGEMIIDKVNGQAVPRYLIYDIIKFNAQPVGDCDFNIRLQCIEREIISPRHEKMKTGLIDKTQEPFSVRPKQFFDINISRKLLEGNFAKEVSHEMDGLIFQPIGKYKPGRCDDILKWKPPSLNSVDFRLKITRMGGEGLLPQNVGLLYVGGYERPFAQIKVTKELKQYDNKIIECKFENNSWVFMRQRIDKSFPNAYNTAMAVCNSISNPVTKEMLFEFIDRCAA

Question: “unlabeled 11 aa phosphorylated CTD peptide (S2P3T4S5PP6S7Y1S2PP3T4S5)” was tested. Which pKi did it give?
Answer: 3.80
